The text below walks through data of patent US20180223285.

One data set has as its target human C5 (Homo sapiens) (UniProt P01031). The data set can be described thus: cell_activity. To be noted: maximal 2'-OMe purine and 2'-F pyrimidine substitution; complement-dependent sheep erythrocyte hemolysis in human serum; positive control.
The target of a further data set is T1, human C5a (Homo sapiens) (UniProt P01031).
T1 sequence: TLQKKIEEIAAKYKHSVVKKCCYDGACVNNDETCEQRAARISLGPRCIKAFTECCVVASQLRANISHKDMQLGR
The data set can be described thus: SPR. To be noted: L-RNA.

Another data set concerns the target T2, mouse C5a (Mus musculus) (UniProt P06684).
T2 sequence: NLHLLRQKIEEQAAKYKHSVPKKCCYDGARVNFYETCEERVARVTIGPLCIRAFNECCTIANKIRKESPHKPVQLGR
The data set can be described thus: SPR. To be noted: L-RNA, Biacore, HBS-EP, 37 C. (In SPR one partner is held on a chip, and binding of the other changes the refractive index at the surface.)

In data set [1] the target is T3, human desArg-C5a (Homo sapiens) (UniProt P01031).
T3 sequence: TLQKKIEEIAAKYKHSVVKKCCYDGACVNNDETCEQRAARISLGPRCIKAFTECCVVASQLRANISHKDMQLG
The data set can be described thus: SPR. The note with it: L-RNA, 5' 40 kDa PEG, Biacore, HBS-EP, 37 C.

Data set [2] has as its target T4, mouse desArg-C5a (Mus musculus) (UniProt P06684).
T4 sequence: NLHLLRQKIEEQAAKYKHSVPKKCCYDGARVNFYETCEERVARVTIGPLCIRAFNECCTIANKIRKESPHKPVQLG
The data set can be described thus: SPR. To be noted: L-RNA; L-2'-deoxy dU7,dU28,dC38; 5' 40 kDa PEG; Biacore, HBS-EP, 37 C.

The mark [3] stands for this setting: L-2'-deoxy dU5,dG12,dA13,dU26,dU28,dC36, terminal stretch truncated to one nucleotide, reduced activity, exact value in figure.

For the substance C5C6 aptamer (Biesecker et al. 1999), the IC50 in the data set with human C5 (Homo sapiens) was 1000 nM. This lies in the single-digit micromolar range.

In the data set with human C5a (Homo sapiens) (setting [3]), “GAUGUGGUGGUGAAGGGUUGUUGGGUGUCGACGCACAGC [NOX-D19001-6xDNA-024]” registered a Kd of less than 10 nM.

Consider “GAUGUGGUGGUGAAGGGUUGUUGGGUGUCGACGCACAGGC [NOX-D19001-6xDNA-010]”, for which the Kd with human C5a (Homo sapiens) (setting [3]) is less than 10 nM.

“GAUGUGGUGGUGAAGGGUUGUUGGGUGUCGACGCACGC [NOX-D19001-6xDNA-029]” yielded a Kd with human C5a (Homo sapiens) (setting [3]) of less than 10 nM.

As to “GCCUGAUGUGGUGGUGAAGGGUUGUUGGGUGUCGACGCACAGGC [NOX-D19001 (274-C8-002-G14)]”, the Kd with mouse C5a (Mus musculus) is 0.3 nM; with human C5a (Homo sapiens) (Biacore, HBS-EP, 37 C), 1.38 nM.

Regarding “GCCUGAUGUGGUGGUGAAGGGUUGUUGGGUGUCGACGCACAGGC [NOX-D19001-6xDNA (D09-16-17-30-32-40)]”, the Kd with human C5a (Homo sapiens) (L-2'-deoxy dU9,dG16,dA17,dU30,dU32,dC40, Biacore, HBS-EP, 37 C) worked out at 0.361 nM.

The substance “GCCUGAUGUGGUGGUGAAGGGUUGUUGGGUGUCGACGCACAGGC [NOX-D19001-D09]” came in with a Kd in the data set with human C5a (Homo sapiens) (L-2'-deoxy dU9, Biacore, HBS-EP, 37 C) of 0.709 nM. This counts as sub-nanomolar.

In turn, “GCGAUGUGGUGGUGAAGGGUUGUUGGGUGUCGACGCAC [NOX-D19001-6xDNA-032]” yielded a Kd in the data set with human C5a (Homo sapiens) (L-2'-deoxy dU7,dG14,dA15,dU28,dU30,dC38, terminal stretch truncated to one nucleotide, reduced activity, exact value in figure) of less than 10 nM.

For the substance “GCGAUGUGGUGGUGAAGGGUUGUUGGGUGUCGACGCACGC [NOX-D20 (NOX-D19001-6xDNA-020-5'40kDa-PEG)]”, the Kd in the data set with mouse C5a (Mus musculus) (L-2'-deoxy dU7,dG14,dA15,dU28,dU30,dC38, 5' 40 kDa PEG) came to 0.019 nM; with human C5a (Homo sapiens) (L-2'-deoxy dU7,dG14,dA15,dU28,dU30,dC38, 5' 40 kDa PEG, Biacore, HBS-EP, 37 C) it was 0.299 nM; in data set [1] (L-2'-deoxy dU7,dG14,dA15,dU28,dU30,dC38), 0.316 nM.

As to “GCGAUGUGGUGGUGAAGGGUUGUUGGGUGUCGACGCACGC [NOX-D21 (NOX-D19001-2dU-1dC-020-5'40kDa-PEG)]”, the Kd was 0.028 nM in data set [2]; 0.029 nM with mouse C5a (Mus musculus) (L-2'-deoxy dU7,dU28,dC38, 5' 40 kDa PEG); 0.815 nM with human C5a (Homo sapiens) (L-2'-deoxy dU7,dU28,dC38, 5' 40 kDa PEG, Biacore, HBS-EP, 37 C); 0.854 nM in data set [1] (L-2'-deoxy dU7,dU28,dC38).

In the case of “GCGAUGUGGUGGUGAAGGGUUGUUGGGUGUCGACGCACGC [NOX-D19001-2xDNA-020]”, the Kd with human C5a (Homo sapiens) (L-2'-deoxy dU7,dU28, stated as improved by more than factor 10 vs 11.3 nM of NOX-D19001-020, exact value in figure) is less than 1.13 nM.

“GCGAUGUGGUGGUGAAGGGUUGUUGGGUGUCGACGCACGC [NOX-D19001-3dU-1dC-020]” yielded a Kd with human C5a (Homo sapiens) (L-2'-deoxy dU7,dU28,dU30,dC38, stated as improved by more than factor 10 vs 11.3 nM of NOX-D19001-020, exact value in figure) of less than 1.13 nM.

On to “GCGAUGUGGUGGUGAAGGGUUGUUGGGUGUCGACGCACGC [NOX-D19001-3xDNA-020]”, for which, in the data set with human C5a (Homo sapiens) (L-2'-deoxy dU7,dU28,dU30, stated as improved by more than factor 10 vs 11.3 nM of NOX-D19001-020, exact value in figure), the Kd was less than 1.13 nM.

As to “GCGAUGUGGUGGUGAAGGGUUGUUGGGUGUCGACGCACGC [NOX-D19001-020]”, the Kd in the data set with human C5a (Homo sapiens) (Biacore, HBS-EP, 37 C) came to 11.3 nM.

In the data set with human C5a (Homo sapiens) (L-2'-deoxy dU7,dG14,dA15,dU28,dU30,dC38, Biacore, HBS-EP, 37 C), “GCGAUGUGGUGGUGAAGGGUUGUUGGGUGUCGACGCACGC [NOX-D20001 (NOX-D19001-6xDNA-020)]” had a Kd of 0.3 nM.

“GCGAUGUGGUGGUGAAGGGUUGUUGGGUGUCGACGCACGC [NOX-D21001 (NOX-D19001-2dU-1dC-020)]”: the Kd in the data set with human C5a (Homo sapiens) (L-2'-deoxy dU7,dU28,dC38, stated as improved by more than factor 10 vs 11.3 nM of NOX-D19001-020, exact value in figure) was less than 1.13 nM.

As a reminder, the IC50 is the concentration needed to halve the response being measured. The low end stands for greater potency in that assay, the high end for weaker potency in that assay. In general, Kd refers to a measure of binding affinity in units of concentration. Read a high Kd as weaker binding.
